# Data from the RNAGym collection of RNA variant scans (doi:10.1073/pnas.2313332121).
# Fewer inactive variants are shown than the library holds.
# B1: TPR 5TU (parent)
# chain: GGAUCUUCUCGAUCUAACAAAAAAGACAAAUCUGCCACAAAGCUUGAGAGCAUCUUCGGAUGCAGAGGCGGCAGCCUUCGGUGGCGCGAUAGCGCCAACGUUCUCAACUAUGACACGCAAAACGCGUGCUCCGUUGAAUGGAGUUUAUCAUG
# Variants of: B1
# Assay: polymerase ribozyme fitness, log enrichment relative to wild type (log ratio); higher = more active; in vitro selection for triplet polymerase activity
# How it was run: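 To select mutant libraries of each subunit of a heterodimeric triplet polymerase ribozyme, built by PCR and transcribed, each was annealed with a biotinylated primer, partner subunit and triplets, then incubated frozen at −7 °C. Extended constructs were gel-excised, captured on streptavidin beads and amplified by RT-PCR, in one round carried out in triplicate. Illumina sequencing of input and output libraries kept genotypes with ≥10 input reads and ≥1 read per output. Fitness is the base-2 logarithm of genotype enrichment relative to wild-type enrichment, from inverse-variance-weighted replicate averages.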
row,Variant,polymerase ribozyme fitness (log ratio)
1,C69G C93A,≤ -4.2
2,C35U G58A A60C C93G C96U C105U C116U,≤ -4.2
3,C14A G25A U53G G84C C87U G117C G124A,≤ -4.2
4,G46U C103G G124A U151G,≤ -4.2
5,G67A U78G G86U C99U G141A,≤ -4.2
6,U56A A60C G92U,-1.73
7,C5U A40G G84A A97G,-3.39
8,A49U C54G C72A U82G A110U,≤ -4.2
9,A39G G86C U109C G128U G140C,≤ -4.2
10,A49G A52G U55A G67A A107U G133C A137G U139C,≤ -4.2
11,C75U C96G,0.716
12,C69G C85U A91G C118A C129G U144A,≤ -4.2
13,U31A C35G A66C G68U,-4.17
14,A29C U33G G34U G50C G84C G100C C108A A113U G141U,≤ -4.2
15,A30U C85U A97U G128A G140C C149U,≤ -4.2
16,U13G U56A C76G A91U C93U,≤ -4.2
17,A16U C32A C35G A47C G58C G68A G70U C96G G126C,≤ -4.2
18,U53A C99U C116U,-1.7
19,G58C C118A,-0.0404
20,G80A G83A A106U C116G U139C G143A,≤ -4.2
21,U144C A150C,-4.19
22,A41G G83C G143C,-3.18

row,Variant,polymerase ribozyme fitness (log ratio)
1,A29U G70U G71A C87U U90A A106U,≤ -4.2
2,U45G G59C C99A U151G,≤ -4.2
3,C96U U101G G124C,-0.75
4,C85A C96A,-2.22
5,U13G G80C G94U U134A,≤ -4.2
6,A23C C32A U56A A60G C103A A110G G112C,≤ -4.2
7,U6G G25U G50C G92A,≤ -4.2
8,C27U U33G G68C C69U C76U C95A C103U A110C G133A U139G,≤ -4.2
9,U15G A20C G42U A52G C85U C93G C103A,≤ -4.2
10,G80U U148C,-3.38
11,C87G A98U,-3.64
12,A49C,-4.19
13,A26C U53A U56A C114U,-3.79
14,A22U U127A,-3.54
15,U45G G84U A113U,-4.1
16,U44A C85A G92A A107U G128U,≤ -4.2
17,G67C G68A C85U C99A A115U,≤ -4.2
18,U13G U56A,-0.285
19,G42C U44A A49C G126C C131A A142G A147U,≤ -4.2
20,U33G U56A A91U C116U,-3.95
21,C10A A12U G80C G94A,≤ -4.2
22,U7C C76U G84A A119U U145G,-3.32

row,Variant,polymerase ribozyme fitness (log ratio)
1,C38U G50A A73U G126U,-3.21
2,C54G,-1.45
3,G67U G83U U101G,≤ -4.2
4,U9A C14U A49U C51U G86U A89U,≤ -4.2
5,G11U C54A,-2.47
6,U15G U77A U78G G88U C149G,≤ -4.2
7,C43U U45A C63U G81A C95G U111A,≤ -4.2
8,A26C G84C C108G G133U,≤ -4.2
9,A3C U7G C14U A52G,-3.28
10,A12U A19C U44G U148C,≤ -4.2
11,U15G A37C A47C C95U,-1.64
12,G94A U148A,-3.08
13,A19C A24U C93U U135C,-2.84
14,U55A U61G G86U,≤ -4.2
15,A49C C69G C85A A120C C125U,≤ -4.2
16,C14A A17U A24C C57U G58C C87A,≤ -4.2
17,U53A C75U,-1.34
18,U45A A49U,≤ -4.2
19,U6G C63U A89C,-0.961
20,G34U C96G,-2.91
21,G59A G67A G86C C96G G140U U144C A147U,≤ -4.2
22,G48A G50A C54A C93G U104A,≤ -4.2

row,Variant,polymerase ribozyme fitness (log ratio)
1,G48A G83U U134C,-1.42
2,A12C A16U U61A C125A,-3.45
3,A52G A89U G124U G136C,-3.18
4,A52U G83A C118U A121C,-2.33
5,G88C C116U,-3.99
6,C36G G62C G84U,≤ -4.2
7,C76G C103G U104G U135C,≤ -4.2
8,U82G C85U A107U,-3.59
9,G48U A52U C93A C95U U145A,≤ -4.2
10,A22U G86U A120U,-1.56
11,A3U C93A,-2.19
12,A17G A89G,-0.582
13,C5A G92A,-1.42
14,U9A A16G C54U C75U C76A A120U,≤ -4.2
15,A3C A16C G48A C96G,-3.42
16,A39G G42A C87G,≤ -4.2
17,G58C U135G,-3.82
18,A3C C14G A39C G81U C96U C105U A121U U134C U135C U148C,≤ -4.2
19,A12C A41C C54U G94U A121G G140C,≤ -4.2
20,A12U G143U,-3.14
21,G50C G141U,-2.26
22,C43U A52C C57U G83A A89C,≤ -4.2
